The source of these data is PMC6321010, “Interaction of the GTPase Elongation Factor Like-1 with the Shwachman-Diamond Syndrome Protein and Its Missense Mutations” (International Journal of Molecular Sciences, 2018).

Assay [1] concerns the target T1, human Elongation Factor Like-1 (EFL1) (human, UniProt Q7Z2Z2 1-1120).
T1 construct: human EFL1, GTPase, said to comprise 1120 residues; the expressed protein is fused to a TEV recognition site and a hexahistidine tag at the C-terminus; also called human EFL1; GTPase Elongation Factor Like-1; source: S. cerevisiae BCY123 (pRS426 backbone, GAL1/10 promoter), purified
T1 sequence: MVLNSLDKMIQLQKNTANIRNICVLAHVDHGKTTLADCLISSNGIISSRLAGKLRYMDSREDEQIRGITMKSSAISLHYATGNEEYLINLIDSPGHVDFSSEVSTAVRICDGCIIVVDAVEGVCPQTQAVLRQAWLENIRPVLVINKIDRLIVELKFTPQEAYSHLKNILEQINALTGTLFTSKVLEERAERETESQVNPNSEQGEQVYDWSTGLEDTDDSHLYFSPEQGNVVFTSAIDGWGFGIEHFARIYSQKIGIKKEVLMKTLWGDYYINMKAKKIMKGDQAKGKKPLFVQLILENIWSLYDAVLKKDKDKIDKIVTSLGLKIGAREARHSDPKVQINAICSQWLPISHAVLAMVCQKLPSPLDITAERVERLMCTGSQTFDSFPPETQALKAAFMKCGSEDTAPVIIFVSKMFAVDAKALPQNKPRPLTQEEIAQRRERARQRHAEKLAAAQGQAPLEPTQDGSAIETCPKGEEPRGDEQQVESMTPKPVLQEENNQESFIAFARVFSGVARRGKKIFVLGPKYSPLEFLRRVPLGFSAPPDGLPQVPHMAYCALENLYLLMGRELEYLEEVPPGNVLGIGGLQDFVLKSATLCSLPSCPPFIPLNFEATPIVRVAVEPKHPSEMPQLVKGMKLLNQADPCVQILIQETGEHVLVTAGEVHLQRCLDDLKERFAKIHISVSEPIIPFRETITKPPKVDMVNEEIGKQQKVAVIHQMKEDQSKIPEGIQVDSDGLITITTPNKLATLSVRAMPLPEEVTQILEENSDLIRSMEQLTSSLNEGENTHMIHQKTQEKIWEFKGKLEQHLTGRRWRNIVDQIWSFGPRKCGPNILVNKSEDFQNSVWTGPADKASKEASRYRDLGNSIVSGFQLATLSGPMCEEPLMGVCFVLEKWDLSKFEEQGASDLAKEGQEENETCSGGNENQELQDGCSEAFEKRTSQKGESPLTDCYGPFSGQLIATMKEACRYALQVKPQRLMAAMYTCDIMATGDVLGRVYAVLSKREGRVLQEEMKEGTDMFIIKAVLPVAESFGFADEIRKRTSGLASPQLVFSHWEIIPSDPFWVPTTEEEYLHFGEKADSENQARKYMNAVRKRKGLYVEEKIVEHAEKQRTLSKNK
Briefly: fluorescence polarisation; fluorescence anisotropy; 2 µL additions of 40-90 µM human EFL1 titrated into 300 µL of 0.1 µM Lumio Green-labelled human SBDS-FlAsH construct; 25 °C; 50 mM Tris-HCl pH 8, 300 mM NaCl, 5 mM β-mercaptoethanol; fitted to a single-site or a two different binding sites model. The settings on record: both partners purified. Background: In fluorescence polarisation assays a small probe gives low polarisation when free and higher when bound to something large.

The target of assay [2] is T2, yeast SBDS orthologue Sdo1 (recombinant, for SAXS) (yeast (S. cerevisiae), UniProt Q07953 1-250).
T2 construct: Sdo1, the yeast orthologue of SBDS; called the full-length Sdo1; source: E. coli C41 (pRSET plasmid), purified by conventional chromatographic techniques
T2 sequence (looked up): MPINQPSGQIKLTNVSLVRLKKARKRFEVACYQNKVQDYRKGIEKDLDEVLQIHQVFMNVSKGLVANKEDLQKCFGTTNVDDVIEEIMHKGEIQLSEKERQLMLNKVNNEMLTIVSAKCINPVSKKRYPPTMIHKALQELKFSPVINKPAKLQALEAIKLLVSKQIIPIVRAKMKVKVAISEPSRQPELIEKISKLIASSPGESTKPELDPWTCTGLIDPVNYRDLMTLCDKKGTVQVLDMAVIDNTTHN
Briefly: SAXS coupled to on-line size exclusion chromatography; yeast Sdo1, EFL1 and the complex EFL1•Sdo1 at 10, 6.5 and 8 mg/mL injected onto a Shodex KW-403 column; 50 mM Tris pH 8.0, 10% glycerol, 300 mM NaCl, 5 mM MgCl2. Particulars: both partners purified. (In gel filtration, larger molecules generally elute earlier.)

B1: human SBDS domain 1 (residues 1-94) with C-terminal FlAsH tag, labelled with Lumio Green (domain or fragment, UniProt Q9Y3A5 1-94, looked up)
chain: MSIFTPTNQIRLTNVAVVRMKRAGKRFEIACYKNKVVGWRSGVEKDLDEVLQTHSVFVNVSKGQVAKKEDLISAFGTDDQTEICKQILTKGEVQ
modifications: Lumio Green dye (4',5'-bis(1,3,2-dithioarsolan-2-yl) fluorescein) on the C-terminal FlAsH tag
notes: human SBDS, domain 1, residues 1-94; also called domain 1 of SBDS; source: E. coli C41 (pRSET plasmid), purified by conventional chromatographic techniques; not shown: FlAsH tag (Cys-Cys-Pro-Gly-Cys-Cys), C-terminal, kept
A word on the Kd: it is the equilibrium constant for the complex coming apart. Higher therefore signals weaker binding. As to B1, binding in assay [1] was put at a Kd of 15.2 ± 0.72 µM.

B2: yeast EFL1 (recombinant, for SAXS) (enzyme, yeast (S. cerevisiae), UniProt P53893 1-1110, looked up)
chain: MPRVESETYKRLQNDPSCIRNICIVAHVDHGKTSLSDSLLASNGIISQRLAGKIRFLDARPDEQLRGITMESSAISLYFRVLRKQEGSDEPLVSEHLVNLIDSPGHIDFSSEVSAASRLCDGAVVLVDVVEGVCSQTVTVLRQCWTEKLKPILVLNKIDRLITELQLTPQEAYIHLSKVIEQVNSVIGSFFANERQLDDLFWREQLEKNENAEYIEKDDSGIYFNPTDNNVIFASAIDGWGFNIGQLAKFYEQKLGAKRENLQKVLWGDFYMDPKTKKIINNKGLKGRSLKPLFTSLILENIWKIYQNIITSRDSEMVEKIAKTLNIKLLARDLRSKDDKQLLRTIMGQWLPVSTAVLLTVIEKLPSPLESQTDRLNTILVSESDTAAMDPRLLKAMKTCDKEGPVSAYVSKMLSIPREELPVESKRIASSDELMERSRKAREEALNAAKHAGMVENMAMMDLNDNSKNTSDLYKRAKDTVMTPEVGEQTKPKPSRNNDVFCVVSEPSSALDLEFEYEGEDDSDSQDNFGLDFVPTDIDPNDPLSSMFEYEEEDPLLESIKQISEDVNDEVDDIFDEKEECLVAFARIYSGTLRVGQEISVLGPKYDPKCPEEHIETAIITHLYLFMGKELVPLDVCPSGNIVGIRGLAGKVLKSGTLIEKGVQGVNLAGVNFHFTPIVRVAVEPANPVEMSKLVRGLKLLDQADPCVHTYVENTGEHILCTAGELHLERCLKDLTERFAGIEITHSEPAIPYRETFLSASDMNPPQNSQLGRGVHELLLSQYKITFRTFPLSGKVTDFLSQHQNSIKNILKTSTSSMDPVIESTGSSFLDKKSLLVAFEEVINQEEKSRELLSGFKVKLAGFGPSRVGCNILLSQDNLLGSLFEGTPAAFEYSDSIKNGFQLAVSEGPLANEPVQGMCVLVESVHKMSQDEIESIEDPRYQQHIVDLSGRLITSTRDAIHEAFLDWSPRIMWAIYSCDIQTSVDVLGKVYAVILQRHGKIISEEMKEGTPFFQIEAHVPVVEAFGLSEDIRKRTSGAAQPQLVFSGFECIDLDPFWVPTTEEELEELGDTADRENIARKHMNAIRRRKGLFIEEKVVENAEKQRTLKKN
notes: yeast EFL1 (GTPase); the model's rigid parts run over residues 1-1110; source: S. cerevisiae BCY123 (pRS426 backbone, GAL1/10 promoter), purified
For orientation: stoichiometry N means a count of units in the complex or per binding partner. Take B2: in assay [2], the “stoichiometry N” value was 1.

B3: human SBDS domains 2-3 (residues 94-250) with C-terminal FlAsH tag, labelled with Lumio Green (domain or fragment, UniProt Q9Y3A5 94-250, looked up)
chain: QVSDKERHTQLEQMFRDIATIVADKCVNPETKRPYTVILIERAMKDIHYSVKTNKSTKQQALEVIKQLKEKMKIERAHMRLRFILPVNEGKKLKEKLKPLIKVIESEDYGQQLEIVCLIDPGCFREIDELIKKETKGKGSLEVLNLKDVEEGDEKFE
modifications: Lumio Green dye (4',5'-bis(1,3,2-dithioarsolan-2-yl) fluorescein) on the C-terminal FlAsH tag
notes: human SBDS, domains 2-3, residues 94-250; also called construct consisting of domains 2-3 of SBDS; source: E. coli C41 (pRSET plasmid), purified by conventional chromatographic techniques; not shown: FlAsH tag (Cys-Cys-Pro-Gly-Cys-Cys), C-terminal, kept
With B3, the Kd in assay [1] was found to be 4.6 ± 0.3 µM.

B4: human SBDS domain 2 (residues 94-175) with C-terminal FlAsH tag, labelled with Lumio Green (domain or fragment, UniProt Q9Y3A5 94-175, looked up)
chain: QVSDKERHTQLEQMFRDIATIVADKCVNPETKRPYTVILIERAMKDIHYSVKTNKSTKQQALEVIKQLKEKMKIERAHMRLR
modifications: Lumio Green dye (4',5'-bis(1,3,2-dithioarsolan-2-yl) fluorescein) on the C-terminal FlAsH tag
notes: human SBDS, domain 2, residues 94-175; also called domain 2 of SBDS; source: E. coli C41 (pRSET plasmid), purified by conventional chromatographic techniques; not shown: FlAsH tag (Cys-Cys-Pro-Gly-Cys-Cys), C-terminal, kept
Take B4: binding in assay [1] was put at a Kd of 10.8 ± 0.9 µM.
